The results in this text go back to patent publication US20230220042A1 (SHANGHAI JIAO TONG UNIVERSITY SCHOOL OF MEDICINE, published 2023).

First the molecules themselves.
T1: FcγRIIB (human, UniProt P31994 43-217, biotin-labeled)
T1 construct: extracellular domain; Bought protein; also called CD32b
T1 sequence (looked up): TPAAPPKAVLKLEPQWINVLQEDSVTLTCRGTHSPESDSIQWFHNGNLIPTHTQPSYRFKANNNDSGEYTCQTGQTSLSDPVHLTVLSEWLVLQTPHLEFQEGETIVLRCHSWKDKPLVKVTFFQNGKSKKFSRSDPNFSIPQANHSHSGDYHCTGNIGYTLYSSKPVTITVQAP

T2: FcγRIIA^131R (human, UniProt P12318 34-217, biotin-labeled)
T2 construct: extracellular domain; Bought protein; also called RIIAR
T2 sequence (looked up): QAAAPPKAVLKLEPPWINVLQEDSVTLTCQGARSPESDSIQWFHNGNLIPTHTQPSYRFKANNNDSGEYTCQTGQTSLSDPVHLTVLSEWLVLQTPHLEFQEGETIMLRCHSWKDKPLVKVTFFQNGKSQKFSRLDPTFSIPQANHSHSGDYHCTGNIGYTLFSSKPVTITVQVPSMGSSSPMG

T3: FcγRIIA^131H (human, UniProt P12318 34-217, biotin-labeled)
T3 construct: extracellular domain; Bought protein; also called RIIAH
T3 sequence (looked up): T2 sequence (looked up) with R134H

B1: anti-human OX40 IgG2 antibody Mut_18 (P233G/S267E) (antibody)
heavy: QVQLQESGPGLVKPSGTLSLTCAVSGGSISSSIWWSWVRQPPGKGLEWIGEIHHSGNTNCNPSLKSRVTISIDKSKNQFSLKLTSVTAADTAVYYCARAGTGTTLDYWGQGTLVTVSSASTKGPSVFPLAPCSRSTSESTAALGCLVKDYFPEPVTVSWNSGALTSGVHTFPAVLQSSGLYSLSSVVTVPSSNFGTQTYTCNVDHKPSNTKVDKTVERKCCVECPPCPAPGVAGPSVFLFPPKPKDTLMISRTPEVTCVVVDVEHEDPEVQFNWYVDGVEVHNAKTKPREEQFNSTFRVVSVLTVVHQDWLNGKEYKCKVSNKGLPAPIEKTISKTKGQPREPQVYTLPPSREEMTKNQVSLTCLVKGFYPSDIAVEWESNGQPENNYKTTPPMLDSDGSFFLYSKLTVDKSRWQQGNVFSCSVMHEALHNHYTQKSLSLSPGK
light: EIVLTQSPGTLSLSPGERATLSCRASQSVSGDYLAWYQQKLGQAPRLLIYGASIRATGIPDRFSGSGSGTDFTLTISKLEPEDFAVYYCQQYGSSPLTFGGGTKVEIKRTVAAPSVFIFPPSDEQLKSGTASVVCLLNNFYPREAKVQWKVDNALQSGNSQESVTEQDSKDSTYSLSSTLTLSKADYEKHKVYACEVTHQGLSSPVTKSFNRGEC
notes: Substitutions in Eu numbering; entries include an unstated signal peptide
B2: anti-human OX40 IgG2 antibody Mut_24 (V266L/S267E/H268S/E269G/P271T) (antibody, name in EU numbering)
heavy: B1 heavy with G231P, V263L, H265S, E266G, P268T
light: B1 light
notes: as for B1
B3: anti-human OX40 IgG2 antibody Mut_23 (V266L/S267E/E269K/P271G) (antibody, name in EU numbering)
heavy: B1 heavy with G231P, V263L, E266K, P268G
light: B1 light
notes: as for B1
B4: anti-human OX40 IgG2 antibody Mut_27 (V266L/S267E/H268S/P271V) (antibody, name in EU numbering)
heavy: B1 heavy with G231P, V263L, H265S, P268V
light: B1 light
notes: as for B1
B5: anti-human OX40 IgG2 antibody Mut_22 (V266L/S267M/H268E/P271Q) (antibody, name in EU numbering)
heavy: B1 heavy with G231P, V263L, E264M, H265E, P268Q
light: B1 light
notes: as for B1
B6: anti-human OX40 IgG2 antibody Mut_25 (V234Q/V266L/S267D/H268D/E269D/P271Q) (antibody)
heavy: B1 heavy with G231P, V232Q, V263L, E264D, H265D, E266D, P268Q
light: B1 light
notes: as for B1
B7: anti-human OX40 IgG2 antibody Mut_20 (V266L/S267E/H268S/E269A/P271C) (antibody, name in EU numbering)
heavy: B1 heavy with G231P, V263L, H265S, E266A, P268C
light: B1 light
notes: as for B1
B8: anti-human OX40 IgG2 antibody Mut_19 (V266L/S267E/H268S/E269V/P271C) (antibody, name in EU numbering)
heavy: B1 heavy with G231P, V263L, H265S, E266V, P268C
light: B1 light
notes: as for B1
B9: anti-human OX40 IgG2 antibody Mut_21 (S267V/S298G/L328W) (antibody, name in EU numbering)
heavy: B1 heavy with G231P, E264V, S295G, L325W
light: B1 light
notes: as for B1

Changes are numbered by the printed parent chain. Names may count otherwise.

T5 sequence (P08637 17-208 F176V): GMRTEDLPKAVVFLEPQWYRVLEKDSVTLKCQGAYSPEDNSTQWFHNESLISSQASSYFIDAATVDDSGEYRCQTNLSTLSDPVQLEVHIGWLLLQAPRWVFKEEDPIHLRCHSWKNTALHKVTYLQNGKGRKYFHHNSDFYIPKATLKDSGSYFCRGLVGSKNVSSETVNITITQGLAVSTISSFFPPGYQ

For one assay, the target named is T1, FcγRIIB. As to the kind of experiment: ELISA; relative affinity to FcγRIIB over that to FcγRIIA131R.
In the case of B1, the RIIB/RIIAR was 1.03 ratio.
Still for that read-out and setting: to B2 belongs 0.98 ratio.
Regarding B3, the RIIB/RIIAR stood at 0.9 ratio.
B4: the RIIB/RIIAR was found to be 0.87 ratio.
As to B5, the RIIB/RIIAR was 1.05 ratio.
The same measure, in the same setting: to B6 belongs 1.01 ratio.
Turning to B7, the RIIB/RIIAR turned out to be 0.85 ratio.
On to B8, for which the RIIB/RIIAR came to 1 ratio.
Same read-out and setting: the value for B9 was 1.03 ratio.

The next assay concerns the target T1, FcγRIIB. The experiment in a line: ELISA, coated antibody, biotin-FcγR. (In general: ELISA stands for enzyme-linked immunosorbent assay.)
For the molecule B1, the Absorbance value came out at 0.78 A650, the “Increased factor of RIIB binding compared with wild-type IgG2” value (“Increased factor of RIIB binding” below) worked out at 10.4 fold and the “Relative binding affinity RIIB/G1” value came out at 1.04 ratio.
Take B2: the Absorbance value is 1 A650, the “Increased factor of RIIB binding” value amounted to 13.3 fold and the “Relative binding affinity RIIB/G1” value was 1.32 ratio.
Consider B3, for which the Absorbance value was 0.97 A650, the “Increased factor of RIIB binding” value amounted to 13 fold and the “Relative binding affinity RIIB/G1” value is 1.29 ratio.
Take B4: the Absorbance value is 0.7 A650, the “Increased factor of RIIB binding” value worked out at 9.29 fold and the “Relative binding affinity RIIB/G1” value was determined as 0.92 ratio.
The matching figures for B5: 0.93 A650, 12.3 fold and 1.22 ratio.
The matching figures for B6: 0.86 A650, 11.5 fold and 1.14 ratio.
Regarding B7, the Absorbance value came out at 1.13 A650, the “Increased factor of RIIB binding” value is 15.1 fold and the “Relative binding affinity RIIB/G1” value worked out at 1.5 ratio.
With B8, the Absorbance value was 0.82 A650, the “Increased factor of RIIB binding” value was determined as 11 fold and the “Relative binding affinity RIIB/G1” value is 1.09 ratio.
As for B9, the Absorbance value was 0.32 A650, the “Increased factor of RIIB binding” value was determined as 4.23 fold and the “Relative binding affinity RIIB/G1” value turned out to be 0.42 ratio.

In a further assay the target is T2, FcγRIIA^131R. As to the kind of experiment: ELISA, coated antibody, biotin-FcγR.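 As to Absorbance value: antibody coated at 2 µg/mL at 100 µL per well.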
Take B1: the Absorbance value came out at 0.26 A650 and the “Relative binding affinity RIIAR/G1” value amounted to 1 ratio.
For B2, the Absorbance value turned out to be 0.35 A650 and the “Relative binding affinity RIIAR/G1” value is 1.35 ratio.
For the molecule B3, the Absorbance value is 0.38 A650 and the “Relative binding affinity RIIAR/G1” value turned out to be 1.44 ratio.
The matching figures for B4: 0.28 A650 and 1.06 ratio.
The matching figures for B5: 0.31 A650 and 1.17 ratio.
B6: the Absorbance value amounted to 0.3 A650 and the “Relative binding affinity RIIAR/G1” value stood at 1.13 ratio.
The matching figures for B7: 0.46 A650 and 1.76 ratio.
As for B8, the Absorbance value was determined as 0.28 A650 and the “Relative binding affinity RIIAR/G1” value turned out to be 1.08 ratio.
With B9, the Absorbance value stood at 0.11 A650 and the “Relative binding affinity RIIAR/G1” value was 0.41 ratio.

For a further assay, the target named is T4, FcγRI (human, UniProt P12314 16-292, biotin-labeled).
T4 construct: extracellular domain; Bought protein; also called CD64
T4 sequence (P12314 16-292): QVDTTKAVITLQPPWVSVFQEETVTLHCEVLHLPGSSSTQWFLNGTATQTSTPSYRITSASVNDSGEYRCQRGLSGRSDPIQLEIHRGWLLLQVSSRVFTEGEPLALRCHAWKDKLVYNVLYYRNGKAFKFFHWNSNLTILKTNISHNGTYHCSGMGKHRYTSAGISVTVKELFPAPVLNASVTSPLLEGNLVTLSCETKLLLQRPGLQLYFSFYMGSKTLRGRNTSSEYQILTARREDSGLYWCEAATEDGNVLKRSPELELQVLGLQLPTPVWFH
As to the kind of experiment: ELISA, coated antibody, biotin-FcγR.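 As to Absorbance value: antibody coated at 2 µg/mL at 100 µL per well.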
Consider B1, for which the Absorbance value turned out to be 0.14 A650 and the “Relative binding affinity RI/G1” value amounted to 0.05 ratio.
With B2, the Absorbance value is 0.12 A650 and the “Relative binding affinity RI/G1” value turned out to be 0.05 ratio.
The matching figures for B3: 0.11 A650 and 0.04 ratio.
As to B4, the Absorbance value was 0.18 A650 and the “Relative binding affinity RI/G1” value was 0.07 ratio.
Consider B5, for which the Absorbance value is 0.12 A650 and the “Relative binding affinity RI/G1” value came to 0.05 ratio.
With B6, the Absorbance value worked out at 0.12 A650 and the “Relative binding affinity RI/G1” value was 0.05 ratio.
Regarding B7, the Absorbance value stood at 0.12 A650 and the “Relative binding affinity RI/G1” value worked out at 0.05 ratio.
For the molecule B8, the Absorbance value came out at 0.11 A650 and the “Relative binding affinity RI/G1” value was determined as 0.04 ratio.
Take B9: the Absorbance value turned out to be 0.16 A650 and the “Relative binding affinity RI/G1” value is 0.06 ratio.

The target in another assay is T3, FcγRIIA^131H. As to the kind of experiment: ELISA, coated antibody, biotin-FcγR.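 As to Absorbance value: antibody coated at 2 µg/mL at 100 µL per well.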
As to B1, the Absorbance value came out at 0.38 A650 and the “Relative binding affinity RIIAH/G1” value turned out to be 0.67 ratio.
In the case of B2, the Absorbance value came out at 0.48 A650 and the “Relative binding affinity RIIAH/G1” value was 0.84 ratio.
On to B3, for which the Absorbance value came out at 0.43 A650 and the “Relative binding affinity RIIAH/G1” value worked out at 0.75 ratio.
In the case of B4, the Absorbance value was 0.48 A650 and the “Relative binding affinity RIIAH/G1” value was 0.84 ratio.
The matching figures for B5: 0.33 A650 and 0.57 ratio.
The matching figures for B6: 0.06 A650 and 0.1 ratio.
The matching figures for B7: 0.48 A650 and 0.85 ratio.
Regarding B8, the Absorbance value is 0.33 A650 and the “Relative binding affinity RIIAH/G1” value stood at 0.58 ratio.
On to B9, for which the Absorbance value was determined as 0.09 A650 and the “Relative binding affinity RIIAH/G1” value is 0.16 ratio.

A further assay concerns the target T5, FcγRIIIA^158V (human, UniProt P08637 17-208, biotin-labeled).
T5 construct: extracellular domain; Bought protein; also called RIIIAV; CD16a 158V
The experiment in a line: ELISA, coated antibody, biotin-FcγR.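 As to Absorbance value: antibody coated at 2 µg/mL at 100 µL per well.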
For the molecule B1, the Absorbance value worked out at 0.08 A650 and the “Relative binding affinity RIIIAV/G1” value is 0.09 ratio.
B2: the Absorbance value was 0.08 A650 and the “Relative binding affinity RIIIAV/G1” value turned out to be 0.08 ratio.
On to B3, for which the Absorbance value stood at 0.06 A650 and the “Relative binding affinity RIIIAV/G1” value turned out to be 0.06 ratio.
On to B4, for which the Absorbance value was 0.1 A650 and the “Relative binding affinity RIIIAV/G1” value came to 0.11 ratio.
As to B5, the Absorbance value is 0.07 A650 and the “Relative binding affinity RIIIAV/G1” value turned out to be 0.07 ratio.
In the case of B6, the Absorbance value came out at 0.05 A650 and the “Relative binding affinity RIIIAV/G1” value turned out to be 0.06 ratio.
Take B7: the Absorbance value came to 0.05 A650 and the “Relative binding affinity RIIIAV/G1” value turned out to be 0.06 ratio.
In the case of B8, the Absorbance value was determined as 0.07 A650 and the “Relative binding affinity RIIIAV/G1” value stood at 0.07 ratio.
Consider B9, for which the Absorbance value was 0.06 A650 and the “Relative binding affinity RIIIAV/G1” value came to 0.06 ratio.

The target of a further assay is T6, FcγRIIIA^158F (human, UniProt P08637 17-208, biotin-labeled).
T6 construct: extracellular domain; Bought protein; also called RIIIAF
T6 sequence (P08637 17-208): as the sequence (P08637 17-208 F176V) above, with V160F counted along it
The experiment in a line: ELISA, coated antibody, biotin-FcγR.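 As to Absorbance value: antibody coated at 2 µg/mL at 100 µL per well.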
Turning to B1, the Absorbance value came out at 0.09 A650 and the “Relative binding affinity RIIIAF/G1” value was determined as 0.47 ratio.
As to B2, the Absorbance value came out at 0.08 A650 and the “Relative binding affinity RIIIAF/G1” value is 0.42 ratio.
In the case of B3, the Absorbance value came out at 0.07 A650 and the “Relative binding affinity RIIIAF/G1” value was found to be 0.35 ratio.
B4: the Absorbance value amounted to 0.09 A650 and the “Relative binding affinity RIIIAF/G1” value amounted to 0.49 ratio.
Consider B5, for which the Absorbance value was found to be 0.06 A650 and the “Relative binding affinity RIIIAF/G1” value stood at 0.33 ratio.
In the case of B6, the Absorbance value amounted to 0.07 A650 and the “Relative binding affinity RIIIAF/G1” value came to 0.36 ratio.
Consider B7, for which the Absorbance value worked out at 0.06 A650 and the “Relative binding affinity RIIIAF/G1” value was 0.31 ratio.
In the case of B8, the Absorbance value was 0.07 A650 and the “Relative binding affinity RIIIAF/G1” value was determined as 0.38 ratio.
Consider B9, for which the Absorbance value was found to be 0.06 A650 and the “Relative binding affinity RIIIAF/G1” value was 0.31 ratio.
